Sequences and labels used below:
B1: Protein E6 (Bovine papillomavirus type 1), P06931 (parent)
chain: MDLKPFARTNPFSGLDCLWCREPLTEVDAFRCMVKDFHVVIREGCRYGACTICLENCLATERRLWQGVPVTGEEAELLHGKTLDRLCIRCCYCGGKLTKNEKHRHVLFNEPFCKTRANIIRGRCYDCCRHGSRSKYP
B2: Protein E6 (Human papillomavirus type 16), P03126 (parent)
chain: MHQKRTAMFQDPQERPRKLPQLCTELQTTIHDIILECVYCKQQLLRREVYDFAFRDLCIVYRDGNPYAVCDKCLKFYSKISEYRHYCYSLYGTTLEQQYNKPLCDLLIRCINCQKPLCPEEKQRHLDKKQRFHNIRGRWTGRCMSCCRSSRTRRETQL

In test [1] the parent is B1. To be noted: with paxi_human PXN.
Test [2] covers variants of B1. To be noted: with paxi_human PXN. The source holds these as a separate data set.
In test [3] the parent is B2. As to conditions: with ube3a_human UBE3A.
Test [4] covers variants of B2. As to conditions: with ube3a_human UBE3A. The source holds these as a separate data set.

These results are taken from IntAct's records for PubMed 23393263.

Turning to MDLKPFARTNPFSGLDCLWCREPLTEVDAFRCMVKDFHVVIREGCRYGACTICLENCLATERRLWQGVPVTGEEAELLHGKTLDRLCILCCYCGGKLTKNEKHRHVLFNEPFCKTRANIIRGRCYDCCRHGSRSKYP, the “effect of a mutation on the interaction” value in test [1] is given as “decreasing interaction strength”; in test [2], “disrupting interaction strength”.

For the variant MDLKPFARTNPFSGLDCLWCREPLTEVDAFRCMVKDFHVVIREGCRYGACTICLENCLATERRLWQGVPVTGEEAELLHGKTLDRLCIACCYCGGKLTKNEKHRHVLFNEPFCKTRANIIRGRCYDCCRHGSRSKYP, the “effect of a mutation on the interaction” value in test [1] is “decreasing interaction strength”; in test [2], “disrupting interaction strength”.

In the case of MDLKPFARTNPFSGLDCLWCREPLTEVDAFRCMVKDFHVVIREGCRYGACTICLENCLATERRLWQGVPVTGEEAELLHGKTLDRLCIRCCYCGGKLTKNEKHRHVLFNEPFCKTRANIIGGRCYDCCRHGSRSKYP, the “effect of a mutation on the interaction” value was “decreasing interaction strength” in test [1] and “disrupting interaction strength” in test [2].

As to MDLKPFARTNPFSGLDCLWCREPLTEVDAFRCMVKDFHVVIREGCRYGACTICLENCLATERRLWQGVPVTGEEAELLHGKTLDRLCIRCCYCGGKLTKNEKHRHVLFNEPFCKTDANIIRGRCYDCCRHGSRSKYP, the “effect of a mutation on the interaction” value in test [1] is given as “decreasing interaction strength”; in test [2], “disrupting interaction strength”.

For MDLKPFARTNPFSGLDCLWCREPLTEVDAFRCMVKDFHVVIREGCRYGACTICLENCLATERRLWQGVPVTGEEAELLHGKTLDRLCIRCCYCGGKLTKNEKHRHVLFNEPFCKTGANIIRGRCYDCCRHGSRSKYP, the results for the “effect of a mutation on the interaction” value in test [1] and in test [2] were “decreasing interaction strength” and “disrupting interaction strength”, respectively.

Turning to MDLKPFARTNPFSGLDCLWCREPLTEVDAFRCMVKDSHVVIREGCRYGACTICLENCLATERRLWQGVPVTGEEAELLHGKTLDRLCIRCCYCGGKLTKNEKHRHVLFNEPFCKTRANIIRGRCYDCCRHGSRSKYP, the “effect of a mutation on the interaction” value is listed as “decreasing interaction strength” in test [1] and “disrupting interaction strength” in test [2].

As for MDLKPFARTNPFSGLDCLWCREPLTEVDAFRCMVKDFHVVIREGCRYGACTICLENCSATERRLWQGVPVTGEEAELLHGKTLDRLCIRCCYCGGKLTKNEKHRHVLFNEPFCKTRANIIRGRCYDCCRHGSRSKYP, the figures for the “effect of a mutation on the interaction” value in test [1] and in test [2] were “decreasing interaction strength” and “disrupting interaction strength”, respectively.

For MHQKRTAMFQDPQERPAKLPQLCTELQTTIHDIILECVYCKQQLLRREVYDFAFRDLCIVYRDGNPYAVCDKCLKFYSKISEYRHYCYSLYGTTLEQQYNKPLCDLLIRCINCQKPLCPEEKQRHLDKKQRFHNIRGRWTGRCMSCCRSSRTRRETQL, the “effect of a mutation on the interaction” value in test [3] was “decreasing interaction strength”.

Regarding MHQKRTAMFQDPQERPRKLPQLCTELQTTIHDIILECVYCKQQLLRREVYDFAFRDACIVYRDGNPYAVCDKCLKFYSKISEYRHYCYSLYGTTLEQQYNKPLCDLLIRCINCQKPLCPEEKQRHLDKKQRFHNIRGRWTGRCMSCCRSSRTRRETQL, the “effect of a mutation on the interaction” value in test [3] is given as “disrupting interaction strength”.

In the case of MHQKRTAMFQDPQERPRKLPQLCTELQTTIHDIILECVYCKQQLLRREVYDFAFRDECIVYRDGNPYAVCDKCLKFYSKISEYRHYCYSLYGTTLEQQYNKPLCDLLIRCINCQKPLCPEEKQRHLDKKQRFHNIRGRWTGRCMSCCRSSRTRRETQL, in test [4], the “effect of a mutation on the interaction” value is “disrupting interaction strength”.

Regarding MHQKRTAMFQDPQERPRKLPQLCTELQTTIHDIILECVYCKQQLLRREVYDFAFRDLCIVYRDGNPYAVCDKCLKFYRKISEYRHYCYSLYGTTLEQQYNKPLCDLLIRCINCQKPLCPEEKQRHLDKKQRFHNIRGRWTGRCMSCCRSSRTRRETQL, the “effect of a mutation on the interaction” value in test [3] is reported as “decreasing interaction strength”.

Turning to MHQKRTAMFQDPQERPRKLPQLCTELQTTIHDIILECVYCKQQLLRREVYDFAFRDLCIVYRDGNPYAVCDKCLKFYSKISEYRHYCYSLYGTTLEQQYNKPLCDLLIRCINCQKPLCPEEKQRHLDKKQRFHNIRGAWTGRCMSCCRSSRTRRETQL, the “effect of a mutation on the interaction” value was “disrupting interaction strength” in test [3] and “decreasing interaction strength” in test [4].

As for MHQKRTAMFQDPQERPRKLPQLCTELQTTIHDIILECVYCKQQLLRREVYDFAFRDLCIVYRDGNPYAVCDKCLKFYSKISEYRHYCYSLYGTTLEQQYNKPLCDLLIACINCQKPLCPEEKQRHLDKKQRFHNIRGRWTGRCMSCCRSSRTRRETQL, the “effect of a mutation on the interaction” value is recorded as “disrupting interaction strength” in test [3] and “decreasing interaction strength” in test [4].

MHQKRTAMFQDPQERPRKLPQLCTELQTTIHDIILECVYCKQQLLRREVYDFAFRDLCIVYADGNPYAVCDKCLKFYSKISEYRHYCYSLYGTTLEQQYNKPLCDLLIRCINCQKPLCPEEKQRHLDKKQRFHNIRGRWTGRCMSCCRSSRTRRETQL: in test [3], the “effect of a mutation on the interaction” value is listed as “decreasing interaction strength”.
